Key:
Experiment in all cases: cell-based or functional assay
[1] = molecular target: HIV-1 Env of pseudovirus 6952.v1.c20 (HIV-1)
[2] = molecular target: HIV-1 Env of pseudovirus A07412M1.vrc12 (HIV-1)
[3] = molecular target: HIV-1 Env of pseudovirus C4118.c09 (HIV-1)
[4] = molecular target: HIV-1 Env of pseudovirus 3301.v1.c24 (HIV-1)
[5] = molecular target: HIV-1 Env of pseudovirus BJOX028000.10.3 (HIV-1)
[6] = molecular target: HIV-1 Env of pseudovirus 3016.v5.c45 (HIV-1)
[7] = molecular target: HIV-1 Env of pseudovirus 3103.v3.c10 (HIV-1)
[8] = molecular target: HIV-1 Env of pseudovirus 235-47 (HIV-1)
[9] = molecular target: HIV-1 Env of pseudovirus BJOX015000.11.5 (HIV-1)
[10] = molecular target: HIV-1 Env of pseudovirus 620345.c01 (HIV-1)
[11] = molecular target: HIV-1 Env of pseudovirus X2131_C1_B5 (HIV-1)
[12] = molecular target: HIV-1 Env of pseudovirus 211-9 (HIV-1)
[13] = molecular target: HIV-1 Env of pseudovirus 263-8 (HIV-1)
[14] = molecular target: HIV-1 Env of pseudovirus T257-31 (HIV-1)
[15] = molecular target: HIV-1 Env of pseudovirus 9004SS_A3_4 (HIV-1)
[16] = molecular target: HIV-1 Env of pseudovirus 6041.v3.c23 (HIV-1)
[17] = molecular target: HIV-1 Env of pseudovirus BJOX025000.01.1 (HIV-1)
[18] = molecular target: HIV-1 Env of pseudovirus 6545.v4.c1 (HIV-1)
[19] = molecular target: HIV-1 Env of pseudovirus 191955_A11 (HIV-1)
[20] = molecular target: HIV-1 Env of pseudovirus BJOX009000.02.4 (HIV-1)
[21] = molecular target: HIV-1 Env of pseudovirus P1981_C5_3 (HIV-1)
[22] = molecular target: HIV-1 Env of pseudovirus 928-28 (HIV-1)
[23] = molecular target: HIV-1 Env of pseudovirus T278-50 (HIV-1)
[24] = molecular target: HIV-1 Env of pseudovirus 231966.c02 (HIV-1)
[25] = molecular target: HIV-1 Env of pseudovirus R2184.c04 (HIV-1)
[26] = molecular target: HIV-1 Env of pseudovirus 191084 B7-19 (HIV-1)
[27] = molecular target: HIV-1 Env of pseudovirus C3347.c11 (HIV-1)
[28] = molecular target: HIV-1 Env of pseudovirus 0815.v3.c3 (HIV-1)
[29] = molecular target: HIV-1 Env of pseudovirus 6540.v4.c1 (HIV-1)
[30] = molecular target: HIV-1 Env of pseudovirus 6480.v4.c25 (HIV-1)
[31] = molecular target: HIV-1 Env of pseudovirus T255-34 (HIV-1)
[32] = molecular target: HIV-1 Env of pseudovirus R3265.c06 (HIV-1)
[33] = molecular target: HIV-1 Env of pseudovirus P0402_c2_11 (HIV-1)
[34] = molecular target: HIV-1 Env of pseudovirus R1166.c01 (HIV-1)
[35] = molecular target: HIV-1 Env of pseudovirus X1254_c3 (HIV-1)
[36] = molecular target: HIV-1 Env of pseudovirus 231965.c01 (HIV-1)

N49P19 (antibody)
neutralization IC50 [1]: > 50 µg/mL
neutralization IC80 [1]: > 50 µg/mL
neutralization MPI [1]: 0
neutralization IC50 [2]: 3.89 µg/mL
neutralization IC80 [2]: 48.8 µg/mL
neutralization MPI [2]: 80
neutralization IC50 [3]: 0.386 µg/mL
neutralization IC80 [3]: 1.36 µg/mL
neutralization MPI [3]: 100
neutralization IC50 [4]: 0.302 µg/mL
neutralization IC80 [4]: 1.42 µg/mL
neutralization MPI [4]: 98
neutralization IC50 [5]: 7 µg/mL
neutralization IC80 [5]: > 50 µg/mL
neutralization MPI [5]: 80
neutralization IC50 [6]: > 50 µg/mL
neutralization IC80 [6]: > 50 µg/mL
neutralization MPI [6]: 9
neutralization IC50 [7]: > 50 µg/mL
neutralization IC80 [7]: > 50 µg/mL
neutralization MPI [7]: 0
neutralization IC50 [8]: 0.44 µg/mL
neutralization IC80 [8]: 3.23 µg/mL
neutralization MPI [8]: 89
neutralization IC50 [9]: 0.756 µg/mL
neutralization IC80 [9]: 3.17 µg/mL
neutralization MPI [9]: 99
neutralization IC50 [10]: > 50 µg/mL
neutralization IC80 [10]: > 50 µg/mL
neutralization MPI [10]: 0
neutralization IC50 [11]: 2.52 µg/mL
neutralization IC80 [11]: 14.4 µg/mL
neutralization MPI [11]: 91
neutralization IC50 [12]: 3.23 µg/mL
neutralization IC80 [12]: 19 µg/mL
neutralization MPI [12]: 93
neutralization IC50 [13]: 0.344 µg/mL
neutralization IC80 [13]: 1.51 µg/mL
neutralization MPI [13]: 99
neutralization IC50 [14]: 0.661 µg/mL
neutralization IC80 [14]: 3 µg/mL
neutralization MPI [14]: 100
neutralization IC50 [15]: 0.661 µg/mL
neutralization IC80 [15]: 3.09 µg/mL
neutralization MPI [15]: 100
neutralization IC50 [16]: > 50 µg/mL
neutralization IC80 [16]: > 50 µg/mL
neutralization MPI [16]: 32
neutralization IC50 [17]: > 50 µg/mL
neutralization IC80 [17]: > 50 µg/mL
neutralization MPI [17]: 24
neutralization IC50 [18]: > 50 µg/mL
neutralization IC80 [18]: > 50 µg/mL
neutralization MPI [18]: 2
neutralization IC50 [19]: > 50 µg/mL
neutralization IC80 [19]: > 50 µg/mL
neutralization MPI [19]: 16
neutralization IC50 [20]: 3.66 µg/mL
neutralization IC80 [20]: 25.6 µg/mL
neutralization MPI [20]: 87
neutralization IC50 [21]: 20.2 µg/mL
neutralization IC80 [21]: > 50 µg/mL
neutralization MPI [21]: 68
neutralization IC50 [22]: 2.73 µg/mL
neutralization IC80 [22]: 9.63 µg/mL
neutralization MPI [22]: 97
neutralization IC50 [23]: > 50 µg/mL
neutralization IC80 [23]: > 50 µg/mL
neutralization MPI [23]: 35
neutralization IC50 [24]: 0.653 µg/mL
neutralization IC80 [24]: 4.55 µg/mL
neutralization MPI [24]: 100
neutralization IC50 [25]: 0.132 µg/mL
neutralization IC80 [25]: 0.445 µg/mL
neutralization MPI [25]: 100
neutralization IC50 [26]: 0.357 µg/mL
neutralization IC80 [26]: 1.34 µg/mL
neutralization MPI [26]: 100
neutralization IC50 [27]: 3.94 µg/mL
neutralization IC80 [27]: 25.7 µg/mL
neutralization MPI [27]: 87
neutralization IC50 [28]: 0.176 µg/mL
neutralization IC80 [28]: 0.743 µg/mL
neutralization MPI [28]: 100
neutralization IC50 [29]: 11.2 µg/mL
neutralization IC80 [29]: > 50 µg/mL
neutralization MPI [29]: 63
neutralization IC50 [30]: 3.04 µg/mL
neutralization IC80 [30]: 28.2 µg/mL
neutralization MPI [30]: 87
neutralization IC50 [31]: 0.948 µg/mL
neutralization IC80 [31]: 6.22 µg/mL
neutralization MPI [31]: 97
neutralization IC50 [32]: 0.634 µg/mL
neutralization IC80 [32]: 2.73 µg/mL
neutralization MPI [32]: 100
neutralization IC50 [33]: 0.448 µg/mL
neutralization IC80 [33]: 2.63 µg/mL
neutralization MPI [33]: 100
neutralization IC50 [34]: 0.629 µg/mL
neutralization IC80 [34]: 2.69 µg/mL
neutralization MPI [34]: 100
neutralization IC50 [35]: > 50 µg/mL
neutralization IC80 [35]: > 50 µg/mL
neutralization MPI [35]: 48
neutralization IC50 [36]: > 50 µg/mL
neutralization IC80 [36]: > 50 µg/mL
neutralization MPI [36]: 22

Source: patent US20240117018A1
